In the supplement of paper PMC12042874:
± gives the uncertainty stated by the source.

Assay: amyloid nucleation score (Sup35N fusion, yeast selection) (log enrichment); library NNK3; higher = more nucleation; inactive = no reads after selection
In short: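 The nucleation score equals the log enrichment of output over input reads from DiMSum, centred on the mode score of non-aggregating sequences. It was computed only for sequences with 100 or more input reads. The reads came from Illumina sequencing of plasmid inserts from psi-negative yeast expressing Sup35N fused to peptides of 20 random codons, induced with 100 μM copper sulfate for 24 hours and grown 7 days at 30°C without adenine and uracil.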

Amyloid nucleation score, 2.44 ± 0.055:
RFFSFFIT

Amyloid nucleation score, 0.596 ± 0.19:
QLINWFRSDDLSLTAVKRKW

Amyloid nucleation score, 1.14 ± 0.15:
QLCVISWLGR

Amyloid nucleation score, -0.42 ± 0.62:
RFFHYYVSNVWTSNPFSTYI

Amyloid nucleation score, inactive:
PQTWVTWKIWYLGFGVAVGV
PRDCS
PREARQHRVRRTGFSVVFVS
PRGWWPMGFSCGYFVFALTP
PRSANSARCVTISSNMEHSR
PRTQSYECVYGYSLKRNWLA
PRYRSLWFAKHMLAVLGSKW
PSHWFISL
PSVHCMWCPRQPDVFPRWIV
PSVPSNHLDCYLTWGT
PSYFVI
PTFNRAMTWYFKFLFHYAHD
PTGLGTAYQLNAWTASFG
PTITMANKDRFLRRCSPNGG
PVHGVGLAIRGSYGSYTGLL
PVKRVIYSRGYVQKCPLCP
PVLGYAECIYKMYKSSQVSW
PVSYVLEEVEPRVRVSGPSG
PVWVKYIDYCPSRKHLSCRV
PVYVG
PWRRDKSGVVLSWDAISFAW
PYAILFNAWNLSAPMACSWV
PYFFSLRNPRI
PYFFTDLICSFKIGAYEQGS
PYGNSELYSERGERAHCNLG
PYKNI
PYMIEVLRSDVNHDCSHMKW
PYRFLESTSRALYFTFSYTF
PYRGSPACMGDYGNQVGNGS
PYRYLGARIRCMAKDSVSHI
QAGLSCD
QALGVGN
QAQIYWM
QCSMDRNT
QDFYFISILACGYIWH
QDKMSMYTYMMR
QDLSYRVGLFWDRSIVLNWY
QDYSELRVSKKKVVRVG
QEWKQWLMSWTSRKAFSLKS
QFCSSYWYQGTAYCLLPIAT
QFDKSNPWNSSSLMMPENGV
QFVAFVYYVCLLWYTGALLI
QGLSGRRGYSDRY
QGNCVNRIC
QILLSLQIWRWWVNRII
QIYSFFIWIEKTGVCRWLWA
QKIPRDDEPMANQDRLSKIS
QKMPSANDRLCISSFLYNLE
QKRIQFTSECTRKRNFWLFS
QKVYNFMWYLFQYIELVYMN
QLSVNMYDCYDNGEHLRIGG
QMRCLY
QMRYLFACFYT
QNTGLYVN
QPLARRIGHISV
QQGFSVLERCISEV
QQHAVR
QQMGYGKADSMFTSLVVYTM
QRCCP
QRKTYRTVEHGMHSSSNL
QSFGMFAVYRAWVSIL
QSHIVSRGLAEENTW
QSLHSYNRSESCSLGSSFWI
QSLIEPSD
QSLRRQYLNYIRSIFESMEN
QSSMLHL
QSYVSFYMQVLRSDRTDILR
QTCSNYLNTFRSRRDWLVKG
QTMAAYLYSWNNTV
QVCPTLWYEVMCLN
QVCYFYIIVLVLD
QVLASTNATESCRIDRDTVV
QVLQKVHG
QVVTSYGGSAVEDITAML
QWKKWLDTACKWVGVGGTIR
QYVIIYEKQLGWRKFDFNSV
QYVVSGMTYFWRYMRLVNVR
RADFLPVKNVMRFRCEFWKR
RADPTRITSPSLLTIMKTHE
RADSGGKCLLAELDGLSPYW
RAHPALVWMIARTKSSSICL
RALKRFYNVIFYFRSYVPVS
RALMGLVIKPKMSNTNLLDY
RANRQQGVGTKQREGHNTVG
RAYGPGRSASEALGRLCVGL
RCAPFNFFPCHIWRYVLTRK
RCCFWVMLFNYARGKRTWCH
RCGEDNLQGSLSTSTVGNLV
RCHYSSWWESPCQSVM
RCLLYTAY
RCMTHRTLAHENRFVHTRCW
RCPTPTWSINGPC
RCRLSKANFRHWNKEVKWTF
RCRTDILYNFERHYLRVEYA
RCSCCCCNALANDRRVCMVE
RCSRWNWCVVAG
RDGHIQMCFIWVKRDNCQVF
RDHSTMQTEVLEWSRNPSMG
RDISGMLYCYEGFYVF
RDMPLMGVYKIPVDAFYSVS
RDSFTVIVSSSSPMPKLVPE
RDVCVHPNHFKCGAAMFPED
RDVTC
RDYQCLQLYCRSASPIT
RECVMETWSQVGRWFTCVRV
REVMWKICFRKINYVGYSGK
RFCRRVHMRLDAVGTCVRWW
RFESHSL
RFGITLVFEYPAVEFVDTTI
RFHDNFAAK
RFKKVVHSFRFCAIENVLDY
RFLRRIIDIVMGQSGNWMIR
RFPDLLQMVRAKAPDPLQQH
RFTRMWTDWCAGLSGSLRCS
RFYDYYTLQVRYMTLHATNG
RFYTSCVCHHLLIYYLIGSS
RGFNYKMLFSSDLD
RGGGQDDYTRFLGSLNDVPV
RGKCSNIETRIVRCWGGQVV
RGMYMRYLGFLDHLNLRVFC
RGTMLLRNISIVCQLYPLST
RGTVSQFVMAVNWFTSFVKR
RHFDSMTINLYTTSLTFFAN

Amyloid nucleation score, -0.33 ± 0.8:
PSSIKRVL

Amyloid nucleation score, -0.631 ± 0.96:
RFNGVVQEIVFCWRYRFVGN

Amyloid nucleation score, 1.91 ± 0.079:
RACHFQVIMCMICALCGFAS

Amyloid nucleation score, 0.214 ± 0.37:
QYYFSYSINSRLITCALVQG

Amyloid nucleation score, 0.57 ± 0.58:
QCRQVIENNRVLFVAIKWEN

Amyloid nucleation score, 1.13 ± 0.074:
QKLVMTYPVIVHNMVNLERY

Amyloid nucleation score, 0.003 ± 1:
RDEASLSYMSPCRYDYCNCF

Amyloid nucleation score, 1.2 ± 0.17:
RCDNKF

Amyloid nucleation score, 1.47 ± 0.13:
PVFVCCRWHVVFGKNNGSAT

Amyloid nucleation score, 0.845 ± 0.12:
PRNMVFYVFCNVSLTHAMYS

Amyloid nucleation score, 0.848 ± 0.099:
QTTLSYIVCMQSRQLRNRAW

Amyloid nucleation score, -0.449 ± 0.8:
QYFHMTWSVIVYEIGVRPYI

Amyloid nucleation score, 1.86 ± 0.078:
RESNNLLFQQVGYLYYSWFY

Amyloid nucleation score, -0.889 ± 2.5:
PWGLGNSARCWCFFMGHCEA

Amyloid nucleation score, -0.039 ± 0.37:
QFSNNSLKVRFMCVLYVVDR

Amyloid nucleation score, 3.06 ± 0.06:
RFHSSLCCNMVWF

Amyloid nucleation score, 0.833 ± 0.12:
RCTVDVFMHCSKLSNAELSL

Amyloid nucleation score, -0.178 ± 0.54:
QCVVVKCCWRDNRWLGSDLV

Amyloid nucleation score, 0.21 ± 0.77:
RDTYMGREVCFNNTPERF

Amyloid nucleation score, 0.534 ± 0.21:
QIQGAGHGM

Amyloid nucleation score, 0.939 ± 0.2:
PRRSNSFRLPLIHISQYSLK

Amyloid nucleation score, 2.56 ± 0.066:
PVTFSCYNTLACIKLYYGNV

Amyloid nucleation score, 1.09 ± 0.079:
RFNGDQMYFNLSFKISELFP

Amyloid nucleation score, 0.145 ± 0.3:
RGICFGYLGFM

Amyloid nucleation score, -0.935 ± 1.5:
QSLSNKVMLLSGRVNQVDVA

Amyloid nucleation score, 1.89 ± 0.076:
RFWFMDFFSH

Amyloid nucleation score, -0.678 ± 0.89:
RGFAVSF

Amyloid nucleation score, 0.29 ± 0.51:
QQKGHTYKLLYNGGRLYFPT

Amyloid nucleation score, 1.11 ± 0.15:
RESDMRSAWGSDVVCLLGDS

Amyloid nucleation score, -0.911 ± 1.5:
RATKVDVRGGVA

Amyloid nucleation score, 0.817 ± 0.22:
RELFTFGVFRYQASL
